Results as given in patent US5625031.

Tests used:
[1] = biological target: p34^cdc2 cell cycle regulatory kinase (Homo sapiens (Human)) (UniProt P06493)
[2] = biological target: p34^cdc2 cell cycle regulatory kinase (Homo sapiens (Human)) (UniProt P06493); test: Western blot densitometry of p34^cdc2 bound to p107 30mer-sepharose against immunoprecipitated p34^cdc2
[3] = biological target: p34^cdc2 cell cycle regulatory kinase (Homo sapiens (Human)) (UniProt P06493); test: IC50 column of Table 1 (ELISA based competition, competitor plate-bound p107 30mer)

## p107 30 amino acid peptide (residues 692-721 of p107, encompassing alpha-helix II)
[1]
  histone H1 kinase specific activity of p34^cdc2 bound to p107 30mer-sepharose: 1.4%
[2]
  amount of p34^cdc2 associated, relative to that within the immune complexes: 50 times

## p107 NC5mer pentapeptide (CAFYI)
[3]
  IC50: 13 µM
